“And” between values parts separate entries of the source, which are not always exact repeats. Equal values may be shown once.
Test system: Bacillus subtilis DB104 (SP-AmyQ fusion secretion)
Assay: AmyQ secretion efficiency, weighted average sort bin (1 = best secretion, 10 = worst) (bin number (weighted average, 1-10)); higher = lower secretion efficiency
How it was run: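 Occupied alginate beads were sorted by large-particle flow cytometry into 10 equally populated bins according to green/red fluorescence ratio. Each bead (~65 nL) held fluorescein-starch and about 0.3 cells of a B. subtilis DB104 library expressing mature AmyQ fused to designed signal peptides from the amyE locus, and beads were grown about 13 h at room temperature and stained with nile red before sorting. Bin amplicons were Illumina-sequenced, and the secretion score is the read-frequency-weighted average bin number, normalised to beads per bin, excluding low-abundance sequences.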

Sequence | AmyQ secretion efficiency
MRSYIKVLTMCFLGLILFVPTNLADNS | 3.6
MKKVLMAFIICLSLILSAKAESV | 4.24
MRKKLKWLSFLLGFIILLFLFKYQFSQNDS | 8.41
MKRFSTLLLGILCSAAVFLIGAPSRALGAEV | 2.96
MRKKLKWLSFRRRRIILLFLFKYQFSNNDS | 7.16
MKKLIMALVILGALKKRKKKISADSS | 8.07
MKRLLSTLLIGIMLLTFAPSAFGKQD | 1.17
MKKWIYVVLVLSIAGIGGFSGHAASS | 5.88
MLCVMMLLFSAIASAQAKDQ | 6.18
MKRSISIFITCLLITLLTMGGMIASPRSAAGT | 2.42
MFKKHTISLLIIFLLASAVLAKPEEAHTV | 4.88
MLKKKWMVGLLAGCLAAGGFSYNAFATSD | 4.28
MKRLFMKASLVLFAVVFVFAVKGAPAKGETH | 2.19
MLCVMMLLFSAIASFPVSVQAKDQ | 3.83
MRKKRRRVITCVMAASLTLGSLLPAGYATAKED | 3.9
MGMKKKLSLGVASAALGLALVGGGTWNAFN | 6.68
MTKRGIQAFAGGIILATAVLAAVFYLTDEDQAAAR | 4.37
MKRIRIPMTLALGAALTIAPLSFNSAEEN | 7.4
MFKKLLLATSALTFSLSLVLVLSIHAKAQEV | 3.44
MGMKKKLRKKRASAALGLALVGGGTWAAFN | 5.51
MKSKWMSGLLLVAVGFSFTQVMFHAGET | 6.46
MKLKKRVSMFLVALTMCGGLFVTPAKAVST | 2.23
MKKVMLATALFLGLTPANAADL | 8.14
MKLAKRVSALTPSTTLAITAKPKEL | 6.44
MKRKKLCVMMLLFSAIASFPVSAQAKDQ | 2.65
MRFTKVVGFLSVLGLAASSILLLFSIVFPLTAQAEKA | 2.15

Sequence | AmyQ secretion efficiency
MSFKRVITCVMAASLTLGSLLPAGYASAKED | 2.84
MKSKGSIMACLILFSFTITSTVSATTFINTETISAFSN | 6.02
MKKCRKSIKRFLVSLIIGTFVISVPFMANAQSD | 1.76
MIVIILLFISIIVFLVVTIQPQPS | 8.71
MKSCKQKQVCSLAAILLLIPSVSFAADS | 6.15
MKKIVSILFMFGGFSQFQPSTVFAADK | 4.29
MKKCLLFLTTIALILSLSTNCFAKNT | 1.59
MNKPTKLFSTLALAAAAAAGGAGTIHAQQP | 1.43
MKSCKQLIVCSLAAILLLIPSVSFAAPD | 2.43
MKKRLIGFLVLVPALIMSGITLMEANKK | 7.17
MRSYIKFNFIISVLTMCFLGLILFVPTALADNS | 1.36
MPIKKKVMMCLAVTLVFGSMSFPTLTNEGGFKE | 4.78
MKKQIITATTAVVLGSTLFAEDDDDEASAQSI | 3.86
MPYLKRLSIVLLLLVTGLFMSLFAVTATASAQTG | 1.6
MKKTIMSFVAVAALSTTAFGAHASAKKR | 2.68
MKKGIIRFLLVSFVLFFALSTGITGVQFAPA | 7.18
MKRLLVSLRVWMVFLMNWVTPDRKTAAGAVY | 7.15
MSMIGLLFMLCLAALFTIGFPAQQADAAEA | 2
MKKKQVMLALTAAAGLGLTALHSAPASKAAPL | 4.06
MPIKKKVMMCLAVTLVFGSMSFPTLTNSGGFPE | 5.65
MKLKKRVSMSSMFLVALTMCGGLFVTPAKAVKT | 1.95
MKKWIYVRKKRSIAGIGGFSVHAASS | 7.24
MAIIIAIIAAVIVIAALITFNVRNESPG | 7.39
MPYLKRKGYQYQSGLFMSLFAVTATASAQTG | 4.4
MKQFAITLSVLCALILLVPTLLVIPFQHNKMAGASV | 5.07
MKKLLAAGIIGLLTVFIAVPSFAAEK | 2.33

Sequence | AmyQ secretion efficiency
MKSKGSIMACLILFSFTITTFINTETISYFSN | 7.41
MKRYRQKCLLLVTIMFLGVLFGMQQANHG | 5.69
MFLKLLLATSALTFSLSLVLPLDGHAKAQEV | 2.93
MNLRKIRRKKKKSLGMLVSAAPVLATSS | 7.69
MKKKQVMLALTAAAGLGLTALHSAPAAKLAPL | 4.96
MKKRRSLIMMTGLLFGLTSPAFAAEK | 3.58
MKRIRIPMTLSTLALGAALTIAPLSFASAEEN | 3.35
MKQIMIFLTSFMLLAMTGTTALAKDV | 3.67
MKWMCSICCAAVLLAGGAAQYEAV | 7.08
MGCTMMLLFSAIASFPVSAQAKDQ | 6.4
MRPVFPLILSAVLFLSCFFGARQTEASTSKR | 2.25
MKKKRALTLCPAIVGSLLFFTAPASAHVS | 3.92
MKKGIIRFRRVSFVLFFALSTGITGVQAAPA | 2.36
MKRFILVLSFLSIIVKKRIQTNASPM | 7.76
MLCVMMLLFSAIASFPVSDQAKDQ | 5.98
MNLRKILLSSALSLGMLVSAAPELATSS | 3.72
MKLKSKLLLSCLALSTVFVATTIWNAPTH | 6.19
MLTKRLLTIYIMLLGLIFVILSALSAAWFPGAAQAEEK | 4.31
MAIIIAIIAAVIVIAALITFNVRNVSPG | 8.03
MTSSLIGFLVLVPALIMSGITLIEANKK | 3.95
MKIRKILLSSALSFGMLISAVPALAAEE | 2.95
MRRKKKRVLTMCFLGLILFVPTALADNS | 3.09
MKRSIFITCLLITLLTMGGMIASPASAAGT | 2.08
MTTKFKKKRRFLLCFMPAAKIEHTQASLL | 7.76
MFKKLLLATSALTFSLSLVLPLDGHAKAQSV | 1.96
MKKKLAAGLTASAIVGTTLVIVTPAEAATI | 3.35

Sequence | AmyQ secretion efficiency
MKRITINIITMFIAAAVISLTGTAEAASS | 2.16
MLLGKILLSSALSLGMLVSAAPVLATSS | 6.9
MKLWMRKTLVVLFTIVTFGLVSPPAAGMADKP | 3.4
MKKLLAAGIIGLLTVSIASPSFHAEK | 6.26
MFNRLFRVCFLAALIMAFTLPNSVYSQKP | 3.32
MKLRKVLTGSVLSLGLLVSASPTFATSP | 1.93
MKLWMRKTLVVLFTIVTFGLVSPPAAEMADKP | 2.41
MLKRTSFVSSLFISSAVLLLPSGQAHAQSA | 1.64
MKTKTLFIFSAILTLSIFAPNETFAQTK | 1.96
MKKTIMSFVAVAALSTTAFGAHASPKEI | 3.96
MLCVMMLLFSAIASFPVSAQAKKK | 7.53
MKKVLMAFIICLSLILSVLAAPPSGAKCESV | 3.94
MKKWIYVVLVLSIAGIGGFSYHAASS | 7.41
MRKKTKNRLISSVLSTVVISSLLFPGAAGASSP | 1.67
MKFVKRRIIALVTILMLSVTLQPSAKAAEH | 3.15
MTKKRWKTPYVCVLLISGWLAPAASASAQTT | 1.44
MLTKRLLTIYIMLLGLIAWFPGAAQAEDE | 3.66
MKKWMITIAMLILAGIALFVFISPTSSSTTFLKSHKT | 7.57
MNKLKRLSMLTVMIASVFIFSSHILAAQY | 3.91
MKLKSKLRKKCRRRSTVFVATTIANAPTH | 7.48
MRKNRILALFVLSLGLLSFMVTPVSAKRK | 2.57
MRIFKKAVFVIMISFLIATVNVNTAHAAID | 3.53 and 3.56 and 3.38
MKWYCSICCAAVLLAGGAAQAEAV | 2.63
MKNMSCKLVVSVTLFFSFLRKKKKKAHAQNS | 6.96
MKVLLSALLLLFEPSASGKKL | 7.48
MRSYIKVLTMCFLGLILFVPTALAARK | 5.25

Sequence | AmyQ secretion efficiency
MPYLKRVLLLLVTGLFMSLFAVTATASAQTK | 1.71
MKKKQVMLALTAAAGLGLTALHSAPAAKAADD | 3.53
MRPVFPLILSAVLFLSCFFGARQTEASISKR | 3
MKKKQQHSTRRKLIVLLFFSFFGVQPIHAKKQ | 5.23
MKKIWIGMLAAAVLLLTKPKESLADAA | 3.56
MRKKKLWISLLFALTLIFTMAFSNMSAQAAGK | 2.97
MKKVLMAFIICLSLILSVLAAPPSGAKPESV | 4.65
MKLKKRVSMFLVALTMCGGLFVRRAKAVKT | 7.34
MLCVMMLLFSAIASFPVSEQAKDQ | 4.62
MKKLLAAGIIGLSIASPSFAAEK | 4.78
MRMLWRSLALCGLALTLAPCAQCAEP | 3.11
MRFTKVVGFLSVLGLAAVAQAEKA | 5.78
MKLSVKIAGVLTVAAAAMTAKMYTTAKGN | 7.65
MKKKQVMLALTAAAGLGLTALHSAPADKAAPL | 5.48
MRKYTVIASILLSFLSVLFGFHHESKAFPV | 3.04
MKKKKMLSMLTVMIASLFIFSSQALAVQY | 3.15
MRSKKLWISLLFALTLITLLVAFTMAFSNMSAQAAGK | 7.19
MKKWMITIAMLKRRRIALFVFISPLKSHKT | 7.36
MRKKCSVCLWILVLLLSCDSGKSAYAATS | 3.15
MNKLKRLSMLTVMIASVFIFSSHTLAAQY | 1.95
MNIKKFAKQATVLTFTTALLAGGATQAFAKET [wt_31] | 3.5
MLMLWNSLALCGLALTLAPCAQAAEP | 2.76
MMMLRKIIGWILLLCIIPLFAFTVIASGKEV | 5.45
MKKAAAVLLSLGLVFGFSYGAGHVAECKTK | 4.74

From the supplement of paper PMC9942255
